{
  "source": "patent US20070231324A1",
  "target": "CD20 (human) (UniProt P11836)",
  "sequence (P11836 whole entry)": "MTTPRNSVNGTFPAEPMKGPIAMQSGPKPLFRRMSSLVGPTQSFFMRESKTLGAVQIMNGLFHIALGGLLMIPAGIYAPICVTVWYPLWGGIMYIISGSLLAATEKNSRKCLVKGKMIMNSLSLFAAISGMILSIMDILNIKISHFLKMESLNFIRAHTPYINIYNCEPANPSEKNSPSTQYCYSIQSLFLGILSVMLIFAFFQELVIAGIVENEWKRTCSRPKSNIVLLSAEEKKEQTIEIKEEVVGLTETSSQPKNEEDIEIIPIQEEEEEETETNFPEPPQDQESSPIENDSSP",
  "assay": "FACS staining of Ramos, Daudi, Raji and BJAB B lymphoma cells",
  "data": [
    {"substance": "RITUXAN® (rituximab), monoclonal antibody specific for CD20", "values": [
      {"measurement": "mean fluorescence shift", "value": "5 to 15", "unit": "units"}
    ]}
  ]
}
